Reference: article PMC4104964

Target: yeast Mediator (yMED), core, devoid of the CKM (yeast (endogenous in strain BJ2168)) (UniProt P38782)
Test: single-particle EM

recombinant GST-labeled CTD of RNAPII (from UniProt P04050 1-1733) (domain or fragment)
fraction of single yMED images with GST-CTD density: 10%
